The supplement of paper PMC9170038

Tested on: K4 kissing-loop RNA reporter
Experiment: apparent KD of K4 kissing-loop reporter; higher = weaker reporter binding
Details: Eterna round: R107
Protocol: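 RNA-MaP round R107: designed RNA switches with theophylline, tryptophan, arginine or FMN aptamers are transcribed on-chip within common flanks. They are titrated with a labelled K4 kissing-loop RNA reporter in RNA-MaP buffer (100 mM Tris pH 7.5, 80 mM KCl, 4 mM MgCl2), without ligand or with the indicated ligand. Median apparent KD per design.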

[1] = input ligand: theophylline 20 uM
[2] = input ligand: tryptophan 2.4 mM
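Note: bound reporter read as fluorescence of individual clusters on recovered sequencing chips by microscopy, with normalized cluster intensities fitted with a binding model.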

Sequence | apparent KD of K4 kissing-loop reporter (input ligand: FMN 200 uM) | apparent KD of K4 kissing-loop reporter (input ligand: arginine 13.2 mM) | apparent KD of K4 kissing-loop reporter (input ligand: none) | apparent KD of K4 kissing-loop reporter [1] | apparent KD of K4 kissing-loop reporter [2]
AGGCGACGCAAAGGAUAUCACGGUUUUCUAGUGAUGUUAGUCAAGACCGACCGAGAAAUCAGUGUUUGAGAAGGUUGAACGUCGC [theeternabot_sameState_KL_FMN_B_46] | 496 nM | 682 nM | 1870 nM | 756 nM | 970 nM
AGGGACUCUUCGGAGUCCCGGUUAAGGGAUACCAGUGAUGUUGGUCACCCUUGGCAGCCCAGAAACCAAGCCACCAAAGGUGGCA [Omei KL Theo A Exc A v2] | 150 nM | 127 nM | 133 nM | 211 nM | 121 nM
AGGUAUGUCUGAAGGAGCGACUAAGAAGCAGUGAUGUUGCUAAGUAGUAAGUAGCUACGUAGUCAGGUAGGUCGCAGAUAUACCU [Arg B SS t14] | 322 nM | 348 nM | 257 nM | 349 nM | 189 nM
AGGUUUUGAUUAGGAUAUGCACUGACGACGAGAAUAUAGUGAUGUUAUAUAAUAGGAAUUAGUAGAGUAGAAGGGAUUGAGGUUU [SSFMNB.W] | 261 nM | 168 nM | 277 nM | 342 nM | 190 nM
AGUAGGAAACUACAAUCCUCUCUUACUGAAGGAGCGCGUGAAAACGCAGGUAGGUCGCAGGAUUGGAGAGUGAUGUUCUCCUUAA [Ex Arginine A K4 17] | 311 nM | 331 nM | 441 nM | 413 nM | 320 nM
AGUAUGGCAACAUUGCAAGUAGCCGUACCACGAGGACCGGUACGGCCGCCACUCGAUAACUUGCAGUGAUGUUGCAAGUAAGAAU [(T)''-(K)'-(T)'-(T1)-(T2)-(K1)-(K2)_Design4] | 193 nM | 206 nM | 227 nM | 268 nM | 199 nM
AGUCUCAAAAGAGGCAGCACUCACGAGGACAAGGAUAUCAUCUCAAUGAGAAGGUGUCCUCGUCCCUAGUGAUGUUAGGGAGUGC [Omei KL FMN A SS E v6] | 205 nM | 265 nM | 305 nM | 682 nM | 437 nM
AGUGAUAUAUGAGGAUAUGGGUUAAUUAGUGAGUUAUUUUUAGUGUUGUUUGAUUAGUGAUGUUAUUUAGAAGGCGUGAGUGAUG [awwswmjmullin] | 113 nM | 75 nM | 67.5 nM | 130 nM | 61.7 nM
AGUGAUGUUGAGUUAUCUUAGUGAAGUGAUCGAGGACCGGUACGGCCGCCACUCGAGUGAUGAGUGAGUGAUGUUUGUUUAGGGA [llkmullin] | 695 nM | 780 nM | 897 nM | 765 nM | 413 nM
AGUGAUGUUUCUUUUAAGAGUGAUGUUUUUCGAGGACCGGUACGGCCGCCACUCGAGUGAUGAGUGCGUCGUUGUGGUGAUUAGU [#13 K4 Tryptophan A Exclusion] | 483 nM | 281 nM | 463 nM | 379 nM | 229 nM
AGUGGACAUGUCUAGAGUGAUGUUCUGGAUACCAGACACGAAAGUGUCCCUUGGCAGCCGGAGUGAUGUUCUGGAGUUCACUAAA [Omei KL Theo A Exc B v8] | 612 nM | 296 nM | 550 nM | 485 nM | 436 nM
AGUGGACGUGUCCGGAGUGAUGUUCAGGAUACCAGACACGAAAGUGUCCCUUGGCAGCCGGAGUGAUGUUCCGGCGUUCACUAAA [Omei KL Theo A Exc B v4] | 459 nM | 248 nM | 360 nM | 419 nM | 321 nM
AGUGUUAGGUUAGAUACCAGCCGUCCGUGGAUAACCCUCGGACCGCCAGUGAUGUUGGCAGGCCCUUGGCAGCUAACAGAACAGA [Beriisa] | 263 nM | 208 nM | 250 nM | 152 nM | 199 nM
AGUUCCGACGGAAGGAGCGGACAGUAUUGACGGAAAGGUGCAAGUGAUGUUUGCGCUUGUGUCCAGGUAGGUCGCCGUCGGAACA [Arg B SS t13] | 91.3 nM | 82.4 nM | 84.7 nM | 79.3 nM | 89.4 nM
AGUUCUUGCCGAAGGAGCGAGGCAGAGUGAUGUUCUGCAAGAGGUCGAAAGACCUCUCUGCCUCAGGUAGGUCGCGGCAUGAACA [Omei KL Arginine B Exc A v3] | 517 nM | 239 nM | 483 nM | 356 nM | 535 nM
AUACGUUUUUGUGAUACCAGACAUGUGAGUGAUGUUUACAUAUAUAUUUAAUAUUUAGCUGUCCCUUGGCAGCACUGUUUAUUUA [JR_ExcTheophyB_Sub004] | 362 nM | 382 nM | 420 nM | 437 nM | 301 nM
AUAGGAGUGAUGUUCCUUAGUUUCUCCGAUACCAGUAUGGAAACAUACCCUUGGCAGCGGGAAACCGCAGAUUAGGAAACUAGUC [Theophylline A K4 6] | 208 nM | 200 nM | 210 nM | 210 nM | 194 nM
AUAUUAACUCAGUGAUGUUGAGUUGACGAAGGAGCGCUAGAGAUAGCAGGUAGGUCGCGUCAAUUUAAUGGAGACUAGCUUUACG [Arg A Ex t4] | 343 nM | 297 nM | 365 nM | 351 nM | 307 nM
AUAUUUAUUUAGUCACUUUUCAUAUUAUGUCAGGAUAUCGUAUUUUCGAGAAGGGACUCAUGCUAGUGAUGUUAGCUAUUUCUCA [JR_Nu3_ExcFMNA_Sub022] | 104 nM | 170 nM | 141 nM | 162 nM | 111 nM
AUCAGCCUCAGAAGGAGCGUGAGUUUUAAGAGGCUGGAGUGAUGUUCCAGACAUAACGACUCACAGGUAGGUCGCUGAGACUAGU [Arg B SS t1] | 132 nM | 99.8 nM | 121 nM | 98.5 nM | 114 nM
AUCAUAUCUAGUCAGCCCAGUGAUGUUGGGCGAGGACCGGUACGGCCGCCACUCGCUUCGUUGCGGUGGCUGGCGUUACGACAAA [Inveusma] | 130 nM | 142 nM | 150 nM | 142 nM | 137 nM
AUGACAGAAUCGGCCGCCACUCAUUGUCCUGUGGACAUUCUAGGAUUAGUGAUGUUUUUCCCAUCGAGGACCGGGAUACAGAUUG [theeternabot_sameState_KL_Trp_B_6] | 675 nM | 267 nM | 467 nM | 398 nM | 519 nM

Sequence | apparent KD of K4 kissing-loop reporter (input ligand: FMN 200 uM) | apparent KD of K4 kissing-loop reporter (input ligand: arginine 13.2 mM) | apparent KD of K4 kissing-loop reporter (input ligand: none) | apparent KD of K4 kissing-loop reporter [1] | apparent KD of K4 kissing-loop reporter [2]
AUGCGCGCGGCGGCCGCCACUCGCAUGAGAGUGAUGUUCUCGCCGUGCCCGUAAGGGCGCGGUGUGAGGACCGGGCCGGGCUGCG [#2 Same State - Tryptophan B Attempt #21 (HarryS)] | 70.8 nM | 66.3 nM | 400 nM | 319 nM | 131 nM
AUGGGUUUGGGAGGAUAUCCUUCCCACGUCGAAGUACCGUGCUUGAUGGAGUGAUGUUCGAUCAGAGGAGAAGGCCCGGAUUUAU [Same State FMN B GF21] | 754 nM | 612 nM | 845 nM | 806 nM | 536 nM
AUGGUUGUCGUAGGAUAUGUAGGAUAUUCCUAUAGCAGUGAUGUUGCUAAUAUCAAUGGAAGAAGGACAGAAGGACGAUAACCAC [KL-SSFMN-B3 #analogue #DoubleAptamer] | 113 nM | 120 nM | 113 nM | 118 nM | 113 nM
AUUAAUAACUGAGGAUAUCGUUUUACUGUAGUGAUGUUACAGAAAAUUCACAUUAUAAUUUCUAUUCGAGAAGGCAGAAUAAUUA [JR_ExcFMNB_Sub014] | 106 nM | 74.6 nM | 65.2 nM | 71.9 nM | 65.1 nM
AUUAAUUUCAGAGGAUAUCGUGAUUUUGUUUAAUUUAUUCAUUUGUGCAGUGAUGUUGCUAAUAUUCGAGAAGGCUGAUUUAUAA [whbob_Ex_FMNB__2th225] | 161 nM | 134 nM | 63.3 nM | 132 nM | 53.3 nM
AUUGUCGGAGUCUGUGCUGACUGACGAGCAAAGGAUAUGUUAUUAAACAGAAGGUUGUGCUGCUUAAGUGAUGUUUUUGGAGCUA [theeternabot_sameState_KL_FMN_A_26] | 308 nM | 190 nM | 239 nM | 228 nM | 216 nM
AUUUAUUACAGAAGGAGCGUGUAUUUAUAAUCAUUUAUCUUAGCGAGUGAUGUUCGCUUUACACAGGUAGGUCGCUGUUUAUUUA [JR_Nu_ExcArginiB_Sub027] | 110 nM | 128 nM | 120 nM | 133 nM | 90.2 nM
AUUUUUAACUGAGGAUAUCGAAUUUAUGUAGUGAUGUUACUUUAAAUUAAAAUUUUAAUUUCUUAACGAGAAGGCAGAAUAAUUA [JR_SSFMNB_Sub025] | 111 nM | 194 nM | 109 nM | 204 nM | 85.4 nM
AUUUUUUACAGAAGGAGCGUGUUUUUAUAAUCAUUUAUCUUAGCGAGUGAUGUUCGCUUUACACAGGUAGGUCGCUGUUUAUUUA [JR_Nu_ExcArginiB_Sub028] | 119 nM | 130 nM | 121 nM | 121 nM | 85.7 nM
CAACCGUAACACGAUACCAGCCUAGAAGCCAGUGAUGUUGGCCUUUUUUCGGAAAUGAAAGGCCCUUGGCAGCGUGGAUGAACUG [Dibibiquus] | 468 nM | 304 nM | 380 nM | 462 nM | 338 nM
CAACUACCCGGAAGGAGCGCGGGUGUAAAUCAAAGGGCUUGAGUGAUGUUCAAGCGGAACCCGCAGGUAGGUCGCCGGGAAGCCC [Quaneson] | 113 nM | 114 nM | 119 nM | 114 nM | 122 nM
CAAGGGCAAGUCGAUACCAGAGACACAUACCCGCAGUGAUGUUGCAGGAAACAGUUACUUCUCCCUUGGCAGCGAAUGCGACUUC [theeternabot_sameState_KL_Theo_B_45] | 348 nM | 313 nM | 344 nM | 309 nM | 332 nM
CACGCCUGUUGUCUGGUAGACAGAUCAGAUACCAGACAUAGUGAUGUCCCUUGGCAGCUGAACAUCCAGUGAUGUUGGAUGCGUU [Theo A SS t11] | 447 nM | 333 nM | 446 nM | 394 nM | 371 nM
CAGAACAUAUAUAGAAACUAUAUAUGAGAUACCAGUCAAAUUAAAGACCCUUGGCAGCUCAGGCGAGUGAUGUUCGCAGGCUAAC [Astros-Gfrank-modulation#2] | 95.9 nM | 109 nM | 102 nM | 122 nM | 88.3 nM
CAUAGGAAACUAUGUAUCUCUCCGACUGAAGGAGCGCGUGAAAACGCAGGUAGGUCGCAGAAUUUAACGGAGAGUGAUGUUCUCU [Ex Arginine A K4 10] | 345 nM | 295 nM | 338 nM | 385 nM | 344 nM
CAUAGGAAACUAUGUAUCUCUCUUACUGAAGGAGCGCGUGAAAACGCAGGUAGGUCGCAGAAUUUAAUAGAGAGUGAUGUUCUCU [Ex Arginine A K4 7] | 239 nM | 202 nM | 254 nM | 244 nM | 208 nM
CAUGGUGCUCGCCAGUUGUGCGAACGGUGGGAGGAUAUGUCGCGAGACAGAAGGCCCAGUGAUGUUGGGCAGGCUCGUAGAUCGA [Mazadi] | 158 nM | 113 nM | 129 nM | 165 nM | 127 nM
CCAUCGCUAUUCGAUACCAGCUACUUAGUGAUGUUAAGUUUUUAUCCACUGUAGGUGGAAAGCCCUUGGCAGCGAAUAGUGAUGG [Theophylline B K4 26] | 442 nM | 357 nM | 474 nM | 234 nM | 417 nM
CCAUUCUGUUACGAUACCAGUCAAAGAUAUUUGAUCAAUACCCUCGCCGAGUGAUGUUCGGACCCUUGGCAGCGUCUGGGACAGG [fdxxvmullin] | 1320 nM | 437 nM | 558 nM | 427 nM | 550 nM
CCCAGUGAUGUUGGUUAAUAUAUUGAUUAACGAGGACCGGUACGGCCGCCACUCGAUAUUUCUAUAAUUAAAAGUUUUGUUUAAA [JR_SSTryptoA_Sub001] | 459 nM | 426 nM | 435 nM | 417 nM | 327 nM
CCGCGGCAAGCUCCGGAACCCAUAUUCGAUACCAGCCUUAUCACGGGCCCUUGGCAGCGAGCGUUAGUGAUGUUAGCGGCAUGGU [theeternabot_sameState_KL_Theo_A_27] | 528 nM | 256 nM | 311 nM | 276 nM | 384 nM
